These results are taken from publication PMC10776578, “Epstein-Barr virus-driven B cell lymphoma mediated by a direct LMP1-TRAF6 complex” (Nature Communications, 2024).

One assay deals with NF-κB in TRAF6^-/- MEFs. Briefly: NF-κB reporter assay, TRAF6 rescue of CTAR2 signalling. The format is cell-based, mouse. Also noted: unit not given here. The procedure: TRAF6^−/− cells (6 × 10^4) were seeded per well of a 6-well plate in DMEM full medium the day before transfection. Cells were transfected with 2 µg of the indicated pCMV-HA-LMP1 plasmids together with 0.5 µg of pRK5-Flag-TRAF6 plasmids or empty vector, 0.05 µg of NF-κB luciferase reporter 3xκB-Luc and 0.2 µg of pPGK-Renilla housekeeping control reporter using the PolyFect transfection reagent (Qiagen)[33]. After 4 h the transfection mix was removed, and the cells were kept overnight in DMEM full medium. NF-κB reporter and Renilla control activities were measured with the Dual-Luciferase reporter assay kit (Promega, #E1910) following the manufacturer’s instructions. Samples of each lysate were analyzed for LMP1 and TRAF6 expression by immunoblotting.
(In general: In a reporter assay the amount or activity of a reporter protein is the signal.)

Assay [1] has as its system IκBα in TRAF6^-/- MEFs expressing NGFR-LMP1. Briefly: IκBα degradation (canonical NF-κB) upon NGFR-LMP1 crosslinking. The assay is classed as cell-based, mouse. The following applies: IκBα immunoblot. The source says:
Wild-type MEFs and derivatives thereof, TRAF6^-/- MEFs[79], and HeLa cells (obtained from the German Collection of Microorganisms and Cell Cultures, GCMC) were kept in Dulbecco’s modified Eagle’s medium (DMEM, Thermo Fischer, #41966-029). The cell lines HEK293 (obtained from GCMC), HA-LCL3[31], LCL721[80], BL41[81], LCL.NGFR-LMP1[35], and the mouse lymphomas LMP1-CL 37 and 40 were kept in Roswell Park Memorial Institute medium (RPMI 1640, Thermo Fisher, #21875-034). If not indicated otherwise, DMEM and RMPI were supplemented with 10% of fetal bovine serum (FBS; Sigma, #F7524), 1 mM L-glutamine (Thermo Fisher, #25030-024) and antibiotics (50 U per mL penicilline and 50 µg per mL streptomycin). LCL.NGFR-LMP1 cells were additionally supplemented with 100 nM sodium selenite and crosslinking primary and secondary antibodies (see below). All cells were kept at 37 °C in the presence of 5% CO2. Retroviral transduction of MEFs with NGFR-LMP1 and TRAF6 was carried out with the vectors pSF91-NGFR-LMP1-IRES-GFP-WPRE and pSF91-Flag-TRAF6-IRES-CFP-WPRE expressing TRAF6 wild-type or the indicated TRAF6 mutants. For NGFR-LMP1 crosslinking, 1 µg per mL of α-NGFR primary antibody (clone HB8737, ATTC) was added for 1 h to the cells. signalling was activated by further addition of 10 µg per mL of α-mouse IgG/IgM secondary antibody (Dianova, #115-005-068) for the given time points.
Immunoblotting was essentially performed as described. Proteins were detected on nitrocellulose membranes (Bio-Rad, #1620115) using the following primary antibodies: α−6*His-tag (clone 4A4 or 2F12, source: antibody facility of the Helmholtz Center Munich, hybridoma supernatants were used at a 1:10 dilution)[75], α-TRAF6 (H-274, Santa Cruz Biotech., #sc-7221, used at 1:1000), α-HA-tag (12CA5, Sigma-Aldrich, #11583816001, used at 0.4 µg per mL), α-IκBα (C-21, Santa Cruz Biotech., #sc-371, used at 1:500) and α-Tubulin (B-5-1-2, Santa Cruz Biotech., #sc-23948, used at 1:500). […] ECL signals were captured on X-ray films (Agfa Healthcare) and quantified by densitometry using the ImageJ software. […]
On the technique in general: In western blotting, separated proteins are transferred to a membrane and probed.

[2] abbreviates: with A204xAxA (CTAR2-specific signalling), replicate 1.
The mark [3] stands for this setting: with A204xAxA/∆371-386 (inactive null control), replicate 1.
Setting [4] is: with A204xAxA/∆371-386, mean of n = 5.
Setting [5] is: with A204xAxA/∆371-386, replicate 2.
The mark [6] stands for this setting: with A204xAxA/∆371-386, replicate 3.
Where [7] appears, read: with A204xAxA/∆371-386, replicate 4.
Where [8] appears, read: with A204xAxA/∆371-386, replicate 5.

B1: R392A (protein, UniProt Q9Y4K3 1-522, looked up, variant R392A)
TNF receptor-associated …: MSLLNCENSCGSSQSESDCCVAMASSCSAVTKDDSVGGTASTGNLSSSFMEEIQGYDVEFDPPLESKYECPICLMALREAVQTPCGHRFCKACIIKSIRDAGHKCPVDNEILLENQLFPDNFAKREILSLMVKCPNEGCLHKMELRHLEDHQAHCEFALMDCPQCQRPFQKFHINIHILKDCPRRQVSCDNCAASMAFEDKEIHDQNCPLANVICEYCNTILIREQMPNHYDLDCPTAPIPCTFSTFGCHEKMQRNHLARHLQENTQSHMRMLAQAVHSLSVIPDSGYISEVRNFQETIHQLEGRLVRQDHQIRELTAKMETQSMYVSELKRTIRTLEDKVAEIEAQQCNGIYIWKIGNFGMHLKCQEEEKPVVIHSPGFYTGKPGYKLCMALHLQLPTAQRCANYISLFVHTMQGEYDSHLPWPFQGTIRLTILDQSEAPVRQNHEEIMDAKPELLAFQRPTIPRNPKGFGYVTFMHLEALRQRTFIKDDTLLVRCEVSTRFDMGSLRREGFQPRSTDAGV
Consider B1, for which the NF-κB reporter activity turned out to be 29.9 in the assay on NF-κB in TRAF6^-/- MEFs (setting [2]); 20.3 in the assay on NF-κB in TRAF6^-/- MEFs (with A204xAxA, replicate 2); 24.4 in the assay on NF-κB in TRAF6^-/- MEFs (with A204xAxA, replicate 3); 30.5 in the assay with NF-κB in TRAF6^-/- MEFs (with A204xAxA, replicate 4); 22.7 in the assay with NF-κB in TRAF6^-/- MEFs (with A204xAxA, replicate 5); 23.3 with NF-κB in TRAF6^-/- MEFs (setting [3]). Moreover, the NF-κB reporter activity in the assay on NF-κB in TRAF6^-/- MEFs (setting [5]) is listed as 12.6; in the assay on NF-κB in TRAF6^-/- MEFs (setting [6]), 15.1; in the assay on NF-κB in TRAF6^-/- MEFs (setting [7]), 21.7; in the assay on NF-κB in TRAF6^-/- MEFs (setting [8]), 14.7. Moreover, the “NF-κB reporter activity, mean” value in the assay with NF-κB in TRAF6^-/- MEFs (with A204xAxA, mean of n = 5) is 25.57; in the assay with NF-κB in TRAF6^-/- MEFs (setting [4]), 17.45. For the same molecule, in assay [1], the “rescue of canonical NF-κB activation by NGFR-LMP1 (in words)” value (“rescue of canonical NF-κB activation” below) is given as “ineffective in rescuing canonical NF-κB activation”.

B2: F471A (protein, UniProt Q9Y4K3 1-522, looked up, variant F471A)
TNF receptor-associated …: MSLLNCENSCGSSQSESDCCVAMASSCSAVTKDDSVGGTASTGNLSSSFMEEIQGYDVEFDPPLESKYECPICLMALREAVQTPCGHRFCKACIIKSIRDAGHKCPVDNEILLENQLFPDNFAKREILSLMVKCPNEGCLHKMELRHLEDHQAHCEFALMDCPQCQRPFQKFHINIHILKDCPRRQVSCDNCAASMAFEDKEIHDQNCPLANVICEYCNTILIREQMPNHYDLDCPTAPIPCTFSTFGCHEKMQRNHLARHLQENTQSHMRMLAQAVHSLSVIPDSGYISEVRNFQETIHQLEGRLVRQDHQIRELTAKMETQSMYVSELKRTIRTLEDKVAEIEAQQCNGIYIWKIGNFGMHLKCQEEEKPVVIHSPGFYTGKPGYKLCMRLHLQLPTAQRCANYISLFVHTMQGEYDSHLPWPFQGTIRLTILDQSEAPVRQNHEEIMDAKPELLAFQRPTIPRNPKGAGYVTFMHLEALRQRTFIKDDTLLVRCEVSTRFDMGSLRREGFQPRSTDAGV
Consider B2, for which the NF-κB reporter activity worked out at 22.4 in the assay with NF-κB in TRAF6^-/- MEFs (setting [2]); 16.8 in the assay on NF-κB in TRAF6^-/- MEFs (with A204xAxA, replicate 2); 19.1 in the assay with NF-κB in TRAF6^-/- MEFs (with A204xAxA, replicate 3); 26.3 in the assay on NF-κB in TRAF6^-/- MEFs (with A204xAxA, replicate 4); 16.3 in the assay with NF-κB in TRAF6^-/- MEFs (with A204xAxA, replicate 5); 22.3 in the assay on NF-κB in TRAF6^-/- MEFs (setting [3]). The NF-κB reporter activity in the assay with NF-κB in TRAF6^-/- MEFs (setting [5]) stood at 23.1; in the assay on NF-κB in TRAF6^-/- MEFs (setting [6]), 15.5; in the assay on NF-κB in TRAF6^-/- MEFs (setting [7]), 21.1; with NF-κB in TRAF6^-/- MEFs (setting [8]), 13.4. In addition, the “NF-κB reporter activity, mean” value worked out at 20.18 in the assay on NF-κB in TRAF6^-/- MEFs (with A204xAxA, mean of n = 5) and 19.11 in the assay with NF-κB in TRAF6^-/- MEFs (setting [4]). Further, in assay [1], the “rescue of canonical NF-κB activation” value is given as “ineffective in rescuing canonical NF-κB activation”.

B3: Y473A (protein, UniProt Q9Y4K3 1-522, looked up, variant Y473A)
TNF receptor-associated …: MSLLNCENSCGSSQSESDCCVAMASSCSAVTKDDSVGGTASTGNLSSSFMEEIQGYDVEFDPPLESKYECPICLMALREAVQTPCGHRFCKACIIKSIRDAGHKCPVDNEILLENQLFPDNFAKREILSLMVKCPNEGCLHKMELRHLEDHQAHCEFALMDCPQCQRPFQKFHINIHILKDCPRRQVSCDNCAASMAFEDKEIHDQNCPLANVICEYCNTILIREQMPNHYDLDCPTAPIPCTFSTFGCHEKMQRNHLARHLQENTQSHMRMLAQAVHSLSVIPDSGYISEVRNFQETIHQLEGRLVRQDHQIRELTAKMETQSMYVSELKRTIRTLEDKVAEIEAQQCNGIYIWKIGNFGMHLKCQEEEKPVVIHSPGFYTGKPGYKLCMRLHLQLPTAQRCANYISLFVHTMQGEYDSHLPWPFQGTIRLTILDQSEAPVRQNHEEIMDAKPELLAFQRPTIPRNPKGFGAVTFMHLEALRQRTFIKDDTLLVRCEVSTRFDMGSLRREGFQPRSTDAGV
As for B3, the NF-κB reporter activity was 17.9 in the assay with NF-κB in TRAF6^-/- MEFs (setting [2]); 12.1 in the assay with NF-κB in TRAF6^-/- MEFs (with A204xAxA, replicate 2); 18.2 in the assay on NF-κB in TRAF6^-/- MEFs (with A204xAxA, replicate 3); 20.7 with NF-κB in TRAF6^-/- MEFs (with A204xAxA, replicate 4); 14.7 in the assay on NF-κB in TRAF6^-/- MEFs (with A204xAxA, replicate 5); 21.7 in the assay with NF-κB in TRAF6^-/- MEFs (setting [3]). In addition, the NF-κB reporter activity with NF-κB in TRAF6^-/- MEFs (setting [5]) is reported as 12.1; with NF-κB in TRAF6^-/- MEFs (setting [6]), 17.7; with NF-κB in TRAF6^-/- MEFs (setting [7]), 21.8; in the assay on NF-κB in TRAF6^-/- MEFs (setting [8]), 14.3. Also, the “NF-κB reporter activity, mean” value with NF-κB in TRAF6^-/- MEFs (with A204xAxA, mean of n = 5) is 16.74; in the assay with NF-κB in TRAF6^-/- MEFs (setting [4]) it was 17.54. Also, in assay [1], the “rescue of canonical NF-κB activation” value is “ineffective in rescuing canonical NF-κB activation”.
